{"source": "patent US20100129344", "key": {"[1]": {"target": "T1, Recombinant phosphorylated IGFBP-1 (human), intact, P08833", "T1 chain": "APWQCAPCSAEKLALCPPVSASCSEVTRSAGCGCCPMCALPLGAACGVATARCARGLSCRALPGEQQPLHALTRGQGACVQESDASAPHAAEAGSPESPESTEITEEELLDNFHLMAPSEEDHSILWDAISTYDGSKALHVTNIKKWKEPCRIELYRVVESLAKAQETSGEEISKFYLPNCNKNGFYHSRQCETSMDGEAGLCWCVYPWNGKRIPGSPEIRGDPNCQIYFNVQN"}, "[2]": {"target": "T2, Highly phosphorylated HepG2-purified IGFBP-1, P08833", "T2 chain": "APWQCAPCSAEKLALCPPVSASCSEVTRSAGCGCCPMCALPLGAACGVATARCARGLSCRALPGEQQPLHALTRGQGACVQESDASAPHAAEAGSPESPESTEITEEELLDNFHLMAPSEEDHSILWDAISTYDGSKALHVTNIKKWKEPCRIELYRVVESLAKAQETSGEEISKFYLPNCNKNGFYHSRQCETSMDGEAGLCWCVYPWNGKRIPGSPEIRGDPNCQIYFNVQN"}, "[3]": {"target": "T3, IGFBP-4 (human, GroPep), P22692", "T3 chain": "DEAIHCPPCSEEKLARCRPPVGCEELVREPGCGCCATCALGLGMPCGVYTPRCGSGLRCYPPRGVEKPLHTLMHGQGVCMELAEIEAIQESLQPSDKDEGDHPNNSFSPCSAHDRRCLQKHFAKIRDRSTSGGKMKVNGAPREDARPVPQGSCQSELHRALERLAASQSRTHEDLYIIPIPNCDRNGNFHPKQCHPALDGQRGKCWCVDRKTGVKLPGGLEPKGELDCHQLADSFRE"}, "[4]": {"target": "T4, IGFBP-6 (human, GroPep), P24592", "T4 chain": "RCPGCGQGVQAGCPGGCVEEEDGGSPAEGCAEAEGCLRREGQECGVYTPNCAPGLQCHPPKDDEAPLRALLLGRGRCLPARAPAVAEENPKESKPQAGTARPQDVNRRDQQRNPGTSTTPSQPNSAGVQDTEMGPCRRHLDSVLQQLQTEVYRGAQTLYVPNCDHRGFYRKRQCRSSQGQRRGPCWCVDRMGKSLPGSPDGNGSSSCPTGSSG"}, "[5]": {"target": "T5, Dephosphorylated preparation of HepG2-purified IGFBP-1, P08833", "T5 chain": "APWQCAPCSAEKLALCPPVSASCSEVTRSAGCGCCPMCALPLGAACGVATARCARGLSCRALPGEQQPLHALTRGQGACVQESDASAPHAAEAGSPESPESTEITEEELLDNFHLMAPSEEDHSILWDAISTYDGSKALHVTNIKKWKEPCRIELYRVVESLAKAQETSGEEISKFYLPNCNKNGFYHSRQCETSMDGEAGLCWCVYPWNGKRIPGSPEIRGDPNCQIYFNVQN"}, "[6]": {"target": "IGFBP-5 (human, Upstate), P24593", "sequence (P24593 21-272)": "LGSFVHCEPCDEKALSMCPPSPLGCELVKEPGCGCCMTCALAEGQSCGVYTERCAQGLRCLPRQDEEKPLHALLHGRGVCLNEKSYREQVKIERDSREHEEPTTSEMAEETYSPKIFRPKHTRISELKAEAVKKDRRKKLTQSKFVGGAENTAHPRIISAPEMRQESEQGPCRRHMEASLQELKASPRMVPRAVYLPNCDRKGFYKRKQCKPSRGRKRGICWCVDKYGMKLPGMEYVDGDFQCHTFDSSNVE"}, "[7]": {"target": "T6, IGFBP-2 (human, GroPep), P18065", "T6 chain": "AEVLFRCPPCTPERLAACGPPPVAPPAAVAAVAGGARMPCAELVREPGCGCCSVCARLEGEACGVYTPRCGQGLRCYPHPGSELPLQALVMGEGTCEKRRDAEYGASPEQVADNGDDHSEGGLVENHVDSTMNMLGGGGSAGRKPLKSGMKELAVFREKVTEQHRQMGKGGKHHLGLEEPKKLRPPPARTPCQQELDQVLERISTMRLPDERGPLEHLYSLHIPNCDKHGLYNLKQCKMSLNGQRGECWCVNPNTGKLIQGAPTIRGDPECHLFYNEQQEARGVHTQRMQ"}, "[8]": {"target": "Glycosylated IGFBP-3 (human, GroPep), P17936", "sequence (P17936 28-291)": "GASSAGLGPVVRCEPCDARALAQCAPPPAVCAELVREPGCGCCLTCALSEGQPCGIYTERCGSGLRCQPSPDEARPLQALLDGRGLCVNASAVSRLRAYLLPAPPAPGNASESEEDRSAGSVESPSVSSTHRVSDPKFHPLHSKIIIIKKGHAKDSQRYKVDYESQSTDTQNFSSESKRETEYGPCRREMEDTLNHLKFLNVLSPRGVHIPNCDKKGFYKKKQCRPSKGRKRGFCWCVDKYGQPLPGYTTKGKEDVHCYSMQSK"}, "[9]": {"target": "T7, Recombinant non-phosphorylated IGFBP-1 (human), P08833", "T7 chain": "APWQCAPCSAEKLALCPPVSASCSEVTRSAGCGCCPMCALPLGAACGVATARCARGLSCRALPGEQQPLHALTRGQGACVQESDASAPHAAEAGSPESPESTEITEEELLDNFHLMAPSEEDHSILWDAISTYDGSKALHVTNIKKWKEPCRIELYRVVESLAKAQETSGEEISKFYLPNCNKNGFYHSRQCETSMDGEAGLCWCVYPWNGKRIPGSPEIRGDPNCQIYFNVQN"}}}
{"protein": "Recombinant azurocidin 27-250, purified from murine myeloma cells (R&D Systems) (protein) IVGGRKARPRQFPFLASIQNQGRHFCGGALIHARFVMTAASCFQSQNPGVSTVVLGAYDLRRRERQSRQTFSISSMSENGYDPQQNLNDLMLLQLDREANLTSSVTILPLPLQNATVEAGTRCQVAGWGSQRSGGRLSRFPRFVNVTVTPEDQCRPNNVCTGVLTRRGGICNGDGGTPLVCEGLAHGVASFSLGPCGRGPDFFTRVALFRDWIDGVLNNPGPGP", "values": [{"measurement": "proteolysis of IGFBP-1", "setting": "[1]", "result": "Recombinant human azurocidin^27-250, produced in mouse myeloma cells, had no effect on IGFBP-1 (data not shown)"}]}
{"protein": "Azurocidin, native, partially purified from human urine by heparin affinity chromatography (protein) IVGGRKARPRQFPFLASIQNQGRHFCGGALIHARFVMTAASCFQSQNPGVSTVVLGAYDLRRRERQSRQTFSISSMSENGYDPQQNLNDLMLLQLDREANLTSSVTILPLPLQNATVEAGTRCQVAGWGSQRSGGRLSRFPRFVNVTVTPEDQCRPNNVCTGVLTRRGGICNGDGGTPLVCEGLAHGVASFSLGPCGRGPDFFTRVALFRDWIDGVLNNPGP", "values": [{"measurement": "cleavage of IGFBP-1 by urine, 2 h at 37 C, neutral conditions (affinity labelling with radioiodinated IGF-I, SDS-PAGE, autoradiography)", "setting": "[2]", "result": "One µl of urine cleaved more than 50% of each IGFBP-1 isoform"}, {"measurement": "proteolysis of IGFBP-1 (SDS-PAGE, silver staining)", "setting": "[1]", "result": "Azurocidin-dependent proteolysis of phosphorylated IGFBP-1 was seen within minutes, using a protease:substrate molar ratio of 1:3,500"}, {"measurement": "time course of degradation by 0.5 µl urine at 37 C (radioiodinated substrate, SDS-PAGE, autoradiography)", "setting": "[1]", "result": "no difference was found in the rate of degradation of each isoform, with fragments visible within 3 min, and substantial degradation by 2 h"}, {"measurement": "cleavage of IGFBP by urine, 2 h at 37 C, neutral conditions", "setting": "[3]", "result": "2 µl had minimal effect on ... not shown here, IGFBP-4"}, {"measurement": "cleavage of IGFBP by urine, 2 h at 37 C, neutral conditions", "setting": "[4]", "result": "2 µl had minimal effect on ... not shown here, IGFBP-4 and IGFBP-6"}, {"measurement": "cleavage of IGFBP-1 by urine, 2 h at 37 C, neutral conditions (affinity labelling with radioiodinated IGF-I, SDS-PAGE, autoradiography)", "setting": "[5]", "result": "One µl of urine cleaved more than 50% of each IGFBP-1 isoform"}, {"measurement": "cleavage of IGFBP by urine, 2 h at 37 C, neutral conditions", "setting": "[6]", "result": "2 µl had minimal effect on ... IGFBP-5"}, {"measurement": "cleavage of IGFBP by urine, 2 h at 37 C, neutral conditions", "setting": "[7]", "result": "2 µl had minimal effect on IGFBP-2"}, {"measurement": "cleavage of IGFBP by urine, 2 h at 37 C, neutral conditions", "setting": "[8]", "result": "2 µl had minimal effect on ... glycosylated (g) IGFBP-3"}, {"measurement": "cleavage of radioiodinated recombinant npIGFBP-1 by 0.25 µl heparin eluate at pH 2 and 7 (2 h, 37 C; SDS-PAGE, autoradiography)", "setting": "[9]", "result": "eluate at pH 2: strong 30K band, no fragments; eluate at pH 7: faint 30K band and a strong band at 14.3K"}, {"measurement": "cleavage of radioiodinated recombinant npIGFBP-1 by 0.25 µl heparin eluate at pH 2 to 8 (2 h, 37 C; SDS-PAGE, autoradiography)", "setting": "[9]", "result": "the 30K band is strong at pH 2 and 4, a little weaker at pH 5, thin at pH 6 and absent at pH 7, 7.5 and 8; bands at 14.3K appear at pH 5 and 6 and are strongest at pH 7 and 7.5"}, {"measurement": "cleavage of radioiodinated recombinant npIGFBP-1 by 0.5 µl urine after preincubation with 2, 5 or 10 ng IGF-I", "setting": "[9]", "result": "at 2, 5 and 10 ng IGF-I the upper band is kept, weaker than in the untreated lane (*), and the lower band is only faint; no clear change from 2 to 10 ng"}, {"measurement": "cleavage of radioiodinated recombinant npIGFBP-1 by 0.5 µl urine after preincubation with 2, 5 or 10 ng IGF-II", "setting": "[9]", "result": "at 2, 5 and 10 ng IGF-II the upper band is kept, weaker than in the untreated lane (*), and the lower band is only faint; no clear change from 2 to 10 ng"}, {"measurement": "cleavage of radioiodinated recombinant npIGFBP-1 by 0.5 µl urine after preincubation with 2, 5 or 10 ng insulin", "setting": "[9]", "result": "at all three amounts of insulin the upper band is as faint as with urine alone and the lower band is seen"}, {"measurement": "cleavage of radioiodinated recombinant npIGFBP-1 by 0.5 µl urine alone at pH 7 (2 h, 37 C; SDS-PAGE, autoradiography)", "setting": "[9]", "result": "lane U: the upper band of the untreated lane (*) is nearly gone and a strong lower band appears"}, {"measurement": "cleavage of radioiodinated recombinant npIGFBP-1 by 0.5 µl urine at pH 2 to 8 (2 h, 37 C; SDS-PAGE, autoradiography); the neutral range is meant", "setting": "[9]", "result": "the 30K band is strong at pH 6, weaker at pH 5, faint at pH 7 and absent at pH 7.5 and 8; strong fragment bands at 14.3K at pH 7, 7.5 and 8 (at pH 2 and 4 the 30K band is also absent, with only faint signal near 14.3K)"}, {"measurement": "time course of degradation by 0.5 µl urine at 37 C (radioiodinated substrate, SDS-PAGE, autoradiography)", "setting": "[9]", "result": "no difference was found in the rate of degradation of each isoform, with fragments visible within 3 min, and substantial degradation by 2 h"}]}
